Target: T1, ヒトeIF5Aタンパクの(44−72番目)のアミノ酸残基から成るペプチド (human, UniProt P63241 44-72)
T1 construct: range 44-72; The peptide was coupled to KLH for immunisation; also called human eIF5A (44-72) peptide
Experiment: ELISA screening of hybridoma monoclonal antibodies

T1 sequence (P63241 44-72 limits assumed): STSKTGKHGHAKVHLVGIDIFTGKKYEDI

B1: 抗ORAIP抗体(クローン YSP5−45−36) (antibody, V domains shown)
VH: EVKLVESGGGLVQPGGSLRLSCATSGFTFTDYYMSWARQPPGKALEWLGFIRNKANGYTTEYSASVKGRFTISRDNSLGILYLQMNTLRPEDSATYYCARNYYGTSFSWFAYWGQGTLVTVSA
VL: MTQTPLSLSVSLGDQASISCRSSQSIVHFNGNTYLEWYLQKPGQSPKLLIYKVSSRFSGVPDRFSGSGSGTDFTLKISRVEAEDLGVYYCFQGSHVPPTFGGGTKLEIK
notes: Mouse monoclonal antibody from a hybridoma (mouse spleen cells fused with mouse myeloma cells); also called モノクローナル抗体(クローン YSP5−45−36); clone YSP5-45-36
  binding result: binds
